Laboratory results as given in publication PMC2830194.

How the values were obtained:
[1] = target: FlhA (Cpn0363), putative flagellar integral membrane protein, full length, bacterial-2-hybrid fusion (C. pneumoniae); assay: two-hybrid; bacterial-2-hybrid in E. coli DHP-1, proteins fused to adenylate cyclase fragments from pT18 and pT25; β-galactosidase activity, in triplicate; cut off for a positive interaction 577 units (table footnote; 677 in the methods)
[2] = target: Full length His-Cpn0859 (C. pneumoniae); assay: cross-linking
[3] = target: CopN, putative T3S plug protein, bacterial-2-hybrid fusion (C. pneumoniae); assay: two-hybrid
[4] = target: CdsL, putative T3S ATPase tethering protein, bacterial-2-hybrid fusion (C. pneumoniae); assay: two-hybrid; bacterial-2-hybrid in E. coli DHP-1, proteins fused to adenylate cyclase fragments from pT18 and pT25; β-galactosidase activity, in triplicate; cut off for a positive interaction 577 units (table footnote; 677 in the methods)
[5] = target: CdsD-FHA-2, bacterial-2-hybrid fusion (positive control) (C. pneumoniae); assay: as above

Substance	β-galactosidase activity (units/mg bacteria) [1]	also measured
CdsL, putative T3S ATPase tethering protein, bacterial-2-hybrid fusion (natural protein)	832	–
Cpn0322 (putative CdsU, YscU ortholog), bacterial-2-hybrid fusion (natural protein)	780	–
FliF (Cpn0860), putative flagellar MS ring protein, full length, bacterial-2-hybrid fusion (natural protein)	847	–
Full length His-Cpn0859 (natural protein)	–	stoichiometry N [2]: 2
FliI (Cpn0858), putative flagellar ATPase, bacterial-2-hybrid fusion (enzyme)	943	β-galactosidase activity (units/mg bacteria) [3]: 943; β-galactosidase activity (units/mg bacteria) [4]: 874
PknD, bacterial-2-hybrid fusion (positive control) (natural protein)	–	β-galactosidase activity (units/mg bacteria) [5]: 996
